Assay results reported in patent US20140148503, “NUCLEIC ACID APTAMERS” (University of Iowa Research Foundation, published 2014).

What was measured:
[1] = molecular target: T1, BSA (bovine serum albumin) (UniProt P02769 P02769:25-607); test: SPR; no appreciable interaction; specificity control; settings: label: 5'-biotin-spacer9-G
Description: (§1) Surface Plasmon Resonance (SPR) measurements were carried out using a BIACore 3000 device. 5′-biotinylated RNA was generated by transcription and gel purification as described above, except the transcription reactions were carried out in the presence of 3 mM biotin-G (Custom order from TriLink Biotechnologies, San Diego, Calif.: 5′-(Biotin) (Spacer 9) G-3′). The biotinylated RNA was immobilized on a streptavidin-coated Biacore chip (Sensor Chip SA, 13R-1003-98, General Electric Company) by injection in binding buffer at a concentration of 25 μg/mL (20 mM HEPES, pH 7.4, 150 mM NaCl, 2 mM CaCl₂). The RNA was refolded by heating to 65° C. followed by cooling to 37° C. prior to immobilization. To measure binding kinetics, fixed concentrations of purified protein were injected over the chip using the “KINJECT” function at a flow rate of 15 μL/min. After binding, the chip was regenerated by injecting 50 mM NaOH with the “QUICKINJECT” function. […]
(§2) Binding specificity of the A9g aptamer for PSMA was determined using SPR/BIACore (FIG. 4D; left panel). Binding specificity was assessed by comparing the kₒₙ, and koff rates of A9g for recombinant PSMA protein (target) to the Kₒₙ, and koff rates of A9g for non-target proteins (BSA and HER2). […] No appreciable interaction between A9g and the non-target proteins (BSA and HER2) was measured (FIG. 4D; left panel). […]

[2] = molecular target: T2, PSMA (prostate specific membrane antigen) (Homo sapiens, UniProt Q04609 Q04609:44-750); test: SPR; 1:1 with mass transfer; range 5-30 nM in triplicate; 20 mM HEPES pH 7.4, 150 mM NaCl, 2 mM CaCl2; settings: tags: R&D Systems 4234-ZN-010; chain copies: 2; label: 5'-biotin-spacer9-G
Description: The data were fit to a 1:1 binding with mass transfer model. […] The on-rate (kₐ) was 1.15×10⁴ M⁻¹·S⁻¹ and the off-rate (kd) was 5.7×10⁻⁵ s⁻¹.
Surface Plasmon Resonance (SPR) measurements were carried out using a BIACore 3000 device. 5′-biotinylated RNA was generated by transcription and gel purification as described above, except the transcription reactions were carried out in the presence of 3 mM biotin-G (Custom order from TriLink Biotechnologies, San Diego, Calif.: 5′-(Biotin) (Spacer 9) G-3′). The biotinylated RNA was immobilized on a streptavidin-coated Biacore chip (Sensor Chip SA, 13R-1003-98, General Electric Company) by injection in binding buffer at a concentration of 25 μg/mL (20 mM HEPES, pH 7.4, 150 mM NaCl, 2 mM CaCl₂). The RNA was refolded by heating to 65° C. followed by cooling to 37° C. prior to immobilization. […]
The NAALADase activity assay provides an indirect measurement of the interaction of the PSMA aptamers with PSMA. […] As determined by the filter binding assay, the A9g aptamer retains the same binding profile as the full-length A9 (FIG. 3A). […] After the injection was halted, the rate of dissociation (koff) was measured. By repeating these measurements at various analyte (PSMA) concentrations, an accurate estimation of binding was determined (KD=koff/Kₒₙ).

[3] = molecular target: T2, PSMA (prostate specific membrane …); test: SPR; lack of binding; settings: tags: R&D Systems 4234-ZN-010; chain copies: 2; label: 5'-biotin-spacer9-G
Description: as §1, §2

[4] = molecular target: T1, BSA (bovine serum albumin); test: SPR; no measurable binding; settings: label: 5'-biotin-spacer9-G
Description: as §1, §2

[5] = molecular target: T2, PSMA (prostate specific membrane …); test: 32P-labeled RNA on cells, on ice; settings: tags: 22Rv1 (1.7) prostate cancer cells; chain copies: 2
Description: One day prior to the binding assay, cells were plated in a 24-well plate at a density of approximately 100,000 cells per well. All subsequent procedures were performed on ice to prevent aptamer internalization. Prior to binding, each well was washed twice with 1 ml of ice-cold Dulbecco's phosphate-buffered saline in the absence of divalent cations (DPBS −/−) to remove growth media. Aptamers were 5′ end-labeled with ³²P using PNK from New England Biolabs as previously described (McNamara, J. O., et al., (2008) Multivalent 4-1BB binding aptamers costimulate CD8+ T cells and inhibit tumor growth in mice. J Clin Invest, 118, 376-386). The concentration of ³²P-radiolabeled aptamer was measured with UV-visible absorption spectroscopy, and serial dilutions ranging from 1000 nM to 30 nM were performed. To measure non-specific binding, serial dilutions were also made containing a high fixed concentration of non-radiolabeled A9g aptamer, at 10 μM. […] Bound RNA was collected by washing with 0.5 ml of 0.5 N NaOH which was added to 3 ml of scintillation fluid, and activity was measured. For each dilution, specific binding was calculated by subtracting the activity of the sample with a high concentration of non-radiolabeled (“cold”) aptamer added (i.e., non-specific binding) from the sample without cold aptamer added (i.e., total binding). […]

[6] = molecular target: T2, PSMA (prostate specific membrane …); test: inhibition; NAALADase of membrane extract; settings: protein: extract; tags: membrane extract of PC-3 (PSMA+) cells stably expressing human PSMA; chain copies: 2
[7] = molecular target: T2, PSMA (prostate specific membrane …); test: cell_activity; transwell migration; invasion IC50 75 nM (FIG. 15C); settings: tags: PSMA-expressing cells, migration and invasion assays; chain copies: 2
[8] = molecular target: T2, PSMA (prostate specific membrane …); test: inhibition; NAALADase; 1 mM CoCl2, 37 C; settings: tags: R&D Systems 4234-ZN-010; chain copies: 2
Description: Refolding was accomplished by heating at 65° C. for 10 minutes, followed by cooling to 37° C. for 10 minutes. A volume of 120 μL of refolded RNA in binding buffer was added to an Eppendorf tube, was combined with 40 μL of 200 mM Tris buffer, pH 7.5, and 20 μL 10 mM CoCl₂ (final concentrations in the reaction 40 mM and 1 mM, respectively). Cobalt (II) chloride was reported to be a “stimulator of enzymatic activity” in the original NAALADase assay protocol (Xiao, Z., et al., (2000) Generation of a baculovirus recombinant prostate-specific membrane antigen and its use in the development of a novel protein biochip quantitative immunoassay. Protein Expr Purif, 19, 12-21). When this compound was omitted from the reaction, we observed increased non-specific RNA interactions. Two micrograms in 2 μL of recombinant human PSMA (4234-ZN-010) from R&D Systems (Minneapolis, Minn.) was diluted in 500 μL of 50 mM pH 7.5 Tris buffer. Ten microliters of the PSMA solution (40 ng PSMA) was added to the reaction mix, and the reaction was incubated for 5 minutes at 37° C. to promote RNA-PSMA interaction. For the experiment shown in FIG. 1A, recombinant, purified human PSMA was obtained courtesy of Dr. David Spencer (Baylor College of Medicine, Houston, Tex.). […]
AG 1-X8 formate resin (200-400 mesh) columns from Bio-Rad (731-6221) were used to quantitate the [³H]-glutamate reaction product. […]

[9] = molecular target: T2, PSMA (prostate specific membrane …); test: filter; 37 C; settings: tags: R&D Systems 4234-ZN-010; chain copies: 2
From the text: FIGS. 3A-3B. Binding of A9 and A9g to human PSMA. (A) A saturation filter binding assay was used to measure binding of A9 and A9g to recombinant human PSMA protein. […] The fraction bound was normalized to the Bₘₐₓ (maximal binding capacity) of A9. (B) Measurement of the binding affinity of A9g for recombinant human PSMA protein by surface plasmon resonance (SPR, BIACore). The data were fit to a 1:1 binding with mass transfer model. […] The on-rate (kₐ) was 1.15×10⁴ M⁻¹·S⁻¹ and the off-rate (kd) was 5.7×10⁻⁵ s⁻¹.
Filter binding assays were performed as previously described (Wong, I. and Lohman, T. M. (1993) A double-filter method for nitrocellulose-filter binding: application to protein-nucleic acid interactions. Prac Natl Acad Sci USA, 90, 5428-5432). Briefly, aptamers were 5′-end labeled with ³²P using PNK. RNA was incubated for 5 minutes with various concentrations of purified, recombinant human PSMA (4234-ZN-010) obtained from R&D Systems at 37° C. The reaction mixture was spotted onto a sandwich of nitrocellulose (Protran BA 83, 0.2 μm pore size, 10 402 488, Whatman), nylon (Zeta-Probe Blotting Membranes, 162-0153, Bio-Rad), and Whatman 3MM chromatography paper (3130-6189) assembled in a dot-blot apparatus. […] The ratio of bound:unbound RNA was calculated by exposing the filters to a storage phosphor screen and imaging with a phosphorimager.

[10] = molecular target: T2, PSMA (prostate specific membrane …); test: filter; Bmax severely diminished; settings: tags: R&D Systems 4234-ZN-010; chain copies: 2
From the text: FIGS. 4A-4D. Characterization of A9g binding to PSMA. (A) Secondary structural predictions of truncated A9 aptamers generated using the RNAStructure 4.6 algorithm. Base changes are denoted by an asterisk (*). Base changes were introduced in an attempt to either retain the predicted secondary structure (A9g.1 and A9g.2) or disrupt various secondary structural elements (A9g.3-A9g.6) of A9g. Two secondary structure predictions were given for the A9g.4 sequence, denoted by A9g.4a and A9g.4b. (B) Effect of A9g aptamer derivatives (A9g.1 through A9g.6) on PSMA NAALADase inhibitor activity. NAALADase activity was measured and normalized as in FIG. 1. (C) Saturation filter binding assay of A9g aptamer and A9g aptamer derivatives (A9g.3-A9g.6). (D) Binding of A9g to recombinant human PSMA, recombinant rat HER2 (rHER2), and BSA using BIACore (left panel). Binding of A9g.6 to recombinant human PSMA, recombinant rat HER2 (rHER2), and BSA using BIACore (right panel).
Filter binding assays were performed as previously described (Wong, I. and Lohman, T. M. (1993) A double-filter method for nitrocellulose-filter binding: application to protein-nucleic acid interactions. Prac Natl Acad Sci USA, 90, 5428-5432). Briefly, aptamers were 5′-end labeled with ³²P using PNK. RNA was incubated for 5 minutes with various concentrations of purified, recombinant human PSMA (4234-ZN-010) obtained from R&D Systems at 37° C. The reaction mixture was spotted onto a sandwich of nitrocellulose (Protran BA 83, 0.2 μm pore size, 10 402 488, Whatman), nylon (Zeta-Probe Blotting Membranes, 162-0153, Bio-Rad), and Whatman 3MM chromatography paper (3130-6189) assembled in a dot-blot apparatus. Bound RNA was captured on the nitrocellulose filter, while unbound RNA was captured on the nylon filter. The ratio of bound:unbound RNA was calculated by exposing the filters to a storage phosphor screen and imaging with a phosphorimager.

[11] = molecular target: T2, PSMA (prostate specific membrane …); test: cell_activity; transwell migration; settings: tags: PSMA-expressing cells, migration and invasion assays; chain copies: 2

T2 sequence (Q04609 44-750, one chain of several): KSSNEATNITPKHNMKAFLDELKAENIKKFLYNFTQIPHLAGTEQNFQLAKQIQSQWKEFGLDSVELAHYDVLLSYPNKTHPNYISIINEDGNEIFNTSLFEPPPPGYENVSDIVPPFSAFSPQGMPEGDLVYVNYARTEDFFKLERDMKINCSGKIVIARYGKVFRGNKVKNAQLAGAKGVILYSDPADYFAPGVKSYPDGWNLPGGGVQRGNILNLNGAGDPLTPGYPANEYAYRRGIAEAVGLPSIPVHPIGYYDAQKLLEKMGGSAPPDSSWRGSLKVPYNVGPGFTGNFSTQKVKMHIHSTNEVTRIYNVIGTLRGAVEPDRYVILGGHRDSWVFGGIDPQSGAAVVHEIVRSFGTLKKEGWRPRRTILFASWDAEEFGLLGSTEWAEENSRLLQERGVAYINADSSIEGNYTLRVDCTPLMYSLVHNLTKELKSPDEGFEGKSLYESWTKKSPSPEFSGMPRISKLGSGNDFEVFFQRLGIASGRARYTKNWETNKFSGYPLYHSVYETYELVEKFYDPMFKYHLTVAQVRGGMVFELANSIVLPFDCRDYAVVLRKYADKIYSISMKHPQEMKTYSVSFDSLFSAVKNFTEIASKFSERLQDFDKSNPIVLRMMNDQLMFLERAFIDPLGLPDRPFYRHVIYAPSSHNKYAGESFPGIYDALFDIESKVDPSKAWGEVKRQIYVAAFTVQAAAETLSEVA
T1 sequence (P02769 25-607, one chain of several): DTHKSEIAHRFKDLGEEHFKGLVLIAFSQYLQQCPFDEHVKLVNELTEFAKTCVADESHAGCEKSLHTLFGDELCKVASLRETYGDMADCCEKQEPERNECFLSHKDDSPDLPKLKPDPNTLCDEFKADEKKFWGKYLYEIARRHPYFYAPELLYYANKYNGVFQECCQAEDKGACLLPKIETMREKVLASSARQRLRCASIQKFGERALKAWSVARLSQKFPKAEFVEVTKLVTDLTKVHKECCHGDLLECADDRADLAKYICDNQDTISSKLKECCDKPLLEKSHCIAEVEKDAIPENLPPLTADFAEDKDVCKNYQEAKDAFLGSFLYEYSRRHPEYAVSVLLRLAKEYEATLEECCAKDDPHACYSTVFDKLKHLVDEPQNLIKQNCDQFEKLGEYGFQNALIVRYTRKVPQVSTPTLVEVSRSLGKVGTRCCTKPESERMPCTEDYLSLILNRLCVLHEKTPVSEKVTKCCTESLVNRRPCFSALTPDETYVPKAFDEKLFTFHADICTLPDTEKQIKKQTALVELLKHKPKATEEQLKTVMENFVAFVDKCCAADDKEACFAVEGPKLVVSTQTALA

With GGGACCGAAAAAGACCUGACUUCUAUACUAAGUCUACGUUCCC (ssRNA, 2'-F pyrimidines) [A9g 5'-biotin] the binding result [1] was “no binding” and the Kd [2] was 5 nM.

GGGACCGAAAAAGACCUGGCUUCUAUACUAAGUCUACGUUCCC (ssRNA, 2'-F pyrimidines) [A9g.6 5'-biotin]: no binding [3]; no binding [4].

For GGGACCGAAAAAGACCUGACUUCUAUACUAAGUCUACGUUCCC (ssRNA, 2'-F pyrimidines) [A9g], the binding signal [5] was ~2 fold binding capacity vs PSMA-negative PC-3, the IC50 [6] was 290 nM and the IC50 [7] was 18 nM. The IC50 [8] was roughly 10 nM and the Kd [9] was 130 nM.

GGGACCGAAAAAGACCUGGCUUCUAUACUAAGUCUACGUUCCC (ssRNA, 2'-F pyrimidines) [A9g.6]: no binding [10].

GGGACCGAAAAAGACCUGACUUCUAUACUAAGUCUACGGUCCC (ssRNA, 2'-F pyrimidines) [A9g.3 (U39G)]: no binding [10].

GGGACCGAAAAAGACCUGACUUCUAUACUAGGUCUACGUUCCC (ssRNA, 2'-F pyrimidines) [A9g.5]: no binding [10].

B1: A9 (ssRNA)
RNA: GGGAGGACGAUGCGGACCGAAAAAGACCUGACUUCUAUACUAAGUCUACGUUCCCAGACGACUCGCCCGA
modifications: 2'-F pyrimidines
B1 showed an IC50 [11] of 81 nM, an IC50 [6] of 267 nM and an IC50 [8] of roughly 10 nM. It also gave a Kd [9] of 110 nM.
